In patent US20080132445A1, “Method for Inducing Mammary Epithelial Cell Differentiation” (Garvan Institute of Medical Reserach, priority 2002, published 2008):

Legend:
[1] = tested on: galanin expression (galanin promoter estrogen response element); conditions: Howard et al 1997; Kaplan et al 1988; cited from earlier work
GalR1 = conditions: stated as known; cited from earlier work
ERK1/2 = assay: Western analysis of cultured mammary glands: MAP kinase pathway; assay type: cell-based, mice; conditions: western blot
Description: (§1) Four week old BALB/c mice were implanted with estrogen, progesterone and cholesterol pellets (Ginsburg and Vonderhaar, 2000). Following nine days of treatment, the whole fourth glands were removed and stretched onto siliconized lens paper and placed into petri dishes containing 2 mL of Waymouths 152/1 medium supplemented with penicillin (100 U/ml), streptomycin (100 μg/ml), gentamycin sulfate (50 μg/ml), 20 mM HEPES, insulin (5 μg/ml), hydrocortisone (100 ng/ml) and aldosterone (100 ng/ml) (basal medium, IAH) to monitor ductal side branching, with and without 100 nM rat galanin (Auspep). To assess lobuloalveolar development ovine PRL (Sigma, 1 μg/ml) was added to the basal medium with or without galanin. Glands were maintained in a tri-gas incubator at 50% O2 and 5% CO2 in air. Medium was changed after 24 hr, then every second day for 6 days before morphology and histology were assessed.
(§2) Following RNA extraction from mammary glands using TRIZOL Reagent (Gibco BRL), protein was extracted following the manufacturer's instructions. […] Specific binding was detected using Horseradish peroxidase conjugated secondary antibodies (Amersham Biosciences) with Chemiluminescence Reagent (PerkinElmer) and Biomax Light Film (Eastman Kodak Company).

[2] = tested on: Gal−/− mice mammary gland; assay: Prl treatment of Gal−/− mice throughout pregnancy (mini-osmotic pump); assay type: in vivo, mouse
Description: (§3) Mammary whole mounts were made by spreading the gland on a glass slide and fixing in 10% formalin solution. Glands were defatted in acetone before carmine alum (0.2% carmine, 0.5% aluminium sulfate) staining overnight. The whole mount was dehydrated using a graded ethanol series followed by xylene treatment for 60 min and storage and photography in methyl salicylate. Morphometric analysis was performed by counting the number of side branches, alveolar buds or lobuloalveoli per mammary gland (n=5) for mammary gland cultures or from 4 representative fields of view from whole 4th inguinal glands.
On the morning of the observation of a vaginal plug, 6-8 week old mice were implanted with a 0.25 μl per hour, 28 day mini-osmotic pump (Alzet) containing unmodified Prl prepared as described (23). Either 0.6 or 1.2 μg were delivered per 24 hr. On the first day post-partum maternal behaviour of mothers was observed, pups were examined for the presence of milk and glands were taken for histological analysis.
(§4) Quantitative PCR was performed using LightCycler technology (Roche). Primers were designed on the basis of mismatch to other genes for WDMN1, β-Actin, WAP, β-casein, […], Elf5, Glycam1, IGF1, GHR, SPOT 14 and PRLR. PCR reactions were performed in 10 μL volume with 1 μL of cDNA, 5 pmoles of each primer and FastStart DNA Master SYBR Green I enzyme mix (Roche) as per manufacturers instructions. Relative quantitation of the product was performed by comparing the crossing points of different samples normalised to an internal control (β-Actin). Each cycle in the linear phase of the reaction corresponds to a two fold difference in transcript levels between samples. Each reaction was performed in triplicate using pooled RNA from the 4-6 mammary glands or the treatment groups utilised for transcript profiling.

Akt = assay: Western analysis of cultured mammary glands: PI3 kinase pathway; assay type: cell-based, mice; conditions: western blot
Description: as §1
Following RNA extraction from mammary glands using TRIZOL Reagent (Gibco BRL), protein was extracted following the manufacturer's instructions. Protein was separated using SDS-PAGE (Bio-Rad Laboratories), transferred to PVDF (Millipore) and blocked overnight with 5% skim milk powder, 2% fetal bovine serum, 50 mM sodium phosphate, 50 mM NaCl and 0.1% Tween 20. Membranes were incubated with one of the following primary antibodies: α-milk protein (Accurate Chemical & Scientific Corporation), α-STAT5a (Upstate Biotech), α-phospho-STAT5, α-phospho-Erk1/2, α-Erk2, α-phospho-Akt (S473), α-phospho-Akt (T308), α-Akt (Cell Signaling Technology) or α-β-Actin (Sigma). 20 μg of protein was loaded per lane except for α-milk protein were 400 ng of protein was loaded. Specific binding was detected using Horseradish peroxidase conjugated secondary antibodies (Amersham Biosciences) with Chemiluminescence Reagent (PerkinElmer) and Biomax Light Film (Eastman Kodak Company).

[3] = tested on: mammary gland gene expression; assay: Transcript profiling of cultured mammary glands (Affymetrix MGU74Av2 GeneChips); assay type: cell-based, mice
Description: as §1
Total RNA was extracted using TRIZOL Reagent (Gibco BRL), purified using RNeasy Mini Kit (QIAGEN), cDNA synthesis performed using Superscript II (Invitrogen Life Technologies), synthesis of Biotin-labeled cRNA performed using BioArray HighYield RNA Transcript labeling Kit (Enzo Diagnostics) and hybridised to Affymetrix MGU74v2 GeneChips overnight as per manufacturers instructions. Arrays were performed in duplicate using 4-6 glands per treatment group from two separate replicate experiments. Analysis was performed using the Affymetrix GeneChip v5 software (MAS 5), with treatment groups compared back to IAH treatment as the baseline comparison. Principal Components Analysis was performed using JMP (SAS Institute). Venn diagrams where formed by selecting genes called increasing or decreasing by MAS 5 with a fold change greater then 1.7 compared to IAH. These groups were further restricted by excluding genes with a magnitude fold change >1.2 induced by the other treatments.
as §4

[4] = tested on: mammary glands (lobuloalveolar development); assay: Mammary gland whole organ culture, morphology and histology; assay type: cell-based, BALB/c mice
Description: as §3
as §1, with “To assess lobuloalveolar development ovine PRL (Sigma, 1 μg/ml) was added to the basal medium with or without galanin. Glands were maintained in a tri-gas incubator at 50% O2 and 5% CO2 in air.” left out

STAT5 = assay: Western analysis of cultured mammary glands: JAK/STAT pathway; assay type: cell-based, mice; conditions: western blot
Description: as §1, §2

[5] = tested on: milk proteins (WAP, α-casein, β-casein); assay: Western analysis of cultured mammary glands: milk protein expression; assay type: cell-based, mice; conditions: western blot
Description: as §1, §2

estrogen
increase of galanin expression [1]: about 4000 fold

GALP (1-60): 60 amino acid neuropeptide, galanin-like peptide, binds GalR1 and GalR2 (APAHRGRGGWTLNSAGYLLGPVLHLPQMGDQDGKRETALEILDLWKAIDGLPYSHPPQPS; Galanin-like peptide; UniProt Q9UBC7 25-84, looked up)
affinity for GalR1 (GalR1): poor affinity

B1: PRL: prolactin; ovine PRL (Sigma, 1 μg/ml) in culture, unmodified Prl by mini-osmotic pump in mice (protein, UniProt P01240 31-229, looked up)
Prolactin: TPVCPNGPGNCQVSLRDLFDRAVMVSHYIHNLSSEMFNEFDKRYAQGKGFITMALNSCHTSSLPTPEDKEQAQQTHHEVLMSLILGLLRSWNDPLYHLVTEVRGMKGVPDAILSRAIEIEEENKRLLEGMEMIFGQVIPGAKETEPYPVWSGLPSLQTKDEDARHSAFYNLLHCLRRDSSKIDTYLKLLNCRIIYNNNC
phosphorylated ERK / sustained activation of the MAP kinase pathway (ERK1/2): dramatically increased
total ERK1/2 (ERK1/2): decreased
lactation and pup survival ([2]; 0.6 or 1.2 μg PRL per 24 hours by mini osmotic pump throughout pregnancy): restored lactation and allowed pup survival
lobuloalveolar density (mammary gland whole mounts) ([2]; PRL throughout pregnancy, 1st day post-partum): partial rescue
Keratin18 levels ([2]; PRL throughout pregnancy, quantitative RT-PCR): unchanged
milk protein gene expression (WDMN1, β-casein, WAP), lobuloalveolar differentiation ([2]; PRL throughout pregnancy, quantitative RT-PCR, 1st day post-partum): did not even partially rescue
mobility of Akt (Akt): decreased mobility
phosphorylation of T308 and S473 residues of Akt (Akt): did not increase
total Akt (Akt): no increase
PDGFRA expression ([3]; cultured mammary glands): prevents galanin from reducing
regulation of galanin or its receptors ([3]; cultured mammary glands): did not regulate
genes regulated that are not regulated by the other hormone (unique transcriptional influence) ([3]; fold change 1.7 versus IAH): 160 genes
genes that changed expression in response to all three treatments ([3]; fold change 1.7 versus IAH, 40% of all regulated genes): 136 genes
genes regulated regardless of the presence of the other hormone ([3]; fold change greater than 1.7 versus IAH): 154 genes
genes regulated by the other hormone whose regulation is antagonised ([3]; prolactin against galanin's unique genes, galanin against 160 prolactin regulated genes): 30/31
number of lobuloalveoli per gland ([4]; IAH medium, PRL 1 μg/ml with or without 100 nM galanin): 8.6±2.1
ductal or lobuloalveolar development by quantitative morphology and histology ([4]; added to IAH medium, 100 nM galanin or ovine PRL 1 μg/ml, 6 days culture): lobuloalveolar development was observed
phosphorylated STAT5 / activation of the JAK/STAT pathway (STAT5): dramatic increase
total STAT5a (STAT5): increase
milk protein synthesis (WAP, α and β casein) [5]: synthesised
